According to paper PMC11661604:

Target: native Semliki Forest virus (SFV) virion (Semliki Forest virus)
Assay: SPR; Biacore 8K; purified SFV virions amine-coupled on a CM5 chip (more than 2,500 RU); Fc fusions flowed in gradient concentrations at 30 μL/min in PBS with 0.05% Tween-20, pH 7.4, 25°C; 1:1 binding model

Row | Substance | Kd [nM] | increase in KD compared to LA2-3 [nM]
1 | LA2-3-Fc (from UniProt P98155-1 69-152) (Fc fusion) | 445 | 
2 | LA2-5-Fc (from UniProt P98155-1 69-237) (Fc fusion) | 269 | 
3 | LA3-4-Fc (from UniProt P98155-1 110-191) (Fc fusion) | 1480 | 
4 | LA1-3-Fc (from UniProt P98155-1 31-152) (Fc fusion) |  | 100
5 | LA3-5-Fc (from UniProt P98155-1 110-237) (Fc fusion) | 438 | 
6 | LA3-Fc (from UniProt P98155-1 110-152) (Fc fusion) | 903 | 
7 | VLDLRLBD-Fc (ligand-binding domain of human VLDLR, LA1-8, Fc fusion) (from UniProt P98155-1 31-355) | 252 | 
